The values below come from patent publication US20230181750A1 (CRISPR THERAPEUTICS, published 2023).

B1: mask peptide P1 (peptide)
peptide: EVAPGKRWFYNHVKQVPHLV
notes: Selected by phage display (Screen 1, X15/X19 library)
B2: mask peptide P2 (peptide)
peptide: HEEVHMRPNKLSLTWAYTGPQLR
notes: as for B1
B3: mask peptide M10 (peptide)
peptide: CYIGLRMVPCFHM
notes: Selected by phage display (Screen 2)
B4: mask peptide M12 (peptide)
peptide: CTMPVHTYSQWLC
notes: as for B3
B5: mask peptide M11 (peptide)
peptide: CTMPSHAVASFLC
notes: as for B3
B6: mask peptide M8 (peptide)
peptide: WCTIPSSMSIRLC
notes: as for B3
B7: mask peptide M5 (peptide)
peptide: CTYPSWVAYIRFC
notes: as for B3
B8: mask peptide M13 (peptide)
peptide: CTYPPRFHMHWLC
notes: as for B3
B9: mask peptide M3 (peptide)
peptide: CTMPPSPRSKVIC
notes: Selected by phage display (Screen 2, XnCXnCXn library)
B10: mask peptide M4 (peptide)
peptide: CTFPNTTMQRTFC
notes: as for B3
B11: mask peptide M7 (peptide)
peptide: CTMPYHIHSIGLC
notes: as for B3
B12: mask peptide M6 (peptide)
peptide: VCTYPPAHRTRFC
notes: as for B3
B13: mask peptide M9 (peptide)
peptide: CHIGKRPVPCLWI
notes: as for B3
B14: mask peptide M14 (peptide)
peptide: CTHVAQWAIKAFC
notes: as for B3

The first test addresses T1, anti-PTK7 antibody Ab181.
T1 construct: also called unmasked antibody
Put plainly: phage display selection against Ab181, X15/X19 library.
B1: the binding result is on record as “binds”. On the same count and under the same terms, then B2, with “binds”.

The target of another test is T1, anti-PTK7 antibody Ab181. Description: phage display selection against Ab181, XnCXnCXn library.
Regarding B3, the binding result was “binds”. On the same count and under the same terms, in the case of B4 it was “binds”. Same read-out and setting: in the case of B5 it was “binds”; in that of B6, “binds”. Same read-out and setting: in the case of B7 it was “binds”; in that of B8, “binds”; in that of B9, “binds”.

As for B10, the binding result was “binds”. For the molecule B11, the binding result is given as “binds”. Same read-out and setting: then B12, with “binds”; and B13, with “binds”.

Regarding B14, the binding result is given as “binds”.
